In publication PMC6522730, “NUDIX hydrolases with inorganic polyphosphate exo- and endopolyphosphatase activities in the glycosome, cytosol and nucleus of Trypanosoma brucei” (Bioscience Reports, 2019):

How the values were obtained:
[1] = substrate: Nc1ncnc2c1ncn2[C@@H]1O[C@H](COP(=O)(O)OP(=O)(O)OP(=O)(O)O)[C@@H](O)[C@H]1O; assay: Pi release, malachite green assay; format: biochemical, Trypanosoma brucei; settings: pH 8.0, 37°C, 6 mM MgCl2, 50 mM NaCl, 40 mM Hepes, 10 min
Description: (§1) Pi release, malachite green assay on TbNH2

[2] = substrate: Nc1ncnc2c1ncn2[C@@H]1O[C@H](COP(=O)(O)OP(=O)(O)O)[C@@H](O)[C@H]1O; assay: Pi release, malachite green assay; format: biochemical, Trypanosoma brucei; settings: pH 8.0, 37°C, 6 mM MgCl2, 50 mM NaCl, 40 mM Hepes, 10 min
Description: as §1

B1: TbNH2 (Trypanosoma brucei brucei TREU927) (protein)
chain: MYRKNVCVVIFNEDLNFLACQRIHEDKFQFVQGGVEEGDADIIRAAYREVHEEVGLFPEDLRLIGEIMPPSGDPHEFRYILHEGANLRHFGYVGQQQRLFLFYTPSSTIQRVRLVPPKGSVAKQEFSHVEWLPIDEIIERCPKEKQHIFVAVSKVAIPMAKAFLKTRSSI
notes: full-length ORF in pET32 Ek/LIC (N-terminal thioredoxin/His tag), E. coli BL21-CodonPlus (DE3), nickel column
Km [1]: 78.1 ± 16.3 µM
Vmax [1]: 0.0102 µmol/min/mg
kcat/Km [1]: 290000 M⁻¹ s⁻¹
Km [2]: 46.5 ± 6.3 µM
Vmax [2]: 0.0056 µmol/min/mg
kcat/Km [2]: 270000 M⁻¹ s⁻¹
